Source: publication PMC5233613
Entries after “also recorded” stand apart in the source; their conditions may differ.

How the values were obtained:
[1] = target: LC3B 1-125 (UniProt Q9GZQ8); assay: ITC
[2] = target: LC3B 1-125 (UniProt Q9GZQ8); assay: ITC; conditions: reference: unphosphorylated peptide; sites S13
[3] = reference: wild-type LC3B, sites S17

## FUNDC1 10-25 (from UniProt Q8IVP5) pS17 peptide
[1]; reference: unphosphorylated peptide, sites S17
  KD: stronger; reference 1.78 ± 0.16

## FUNDC1 10-25 (from UniProt Q8IVP5) LC3B K49A
[1]; [3]
  KD: weaker; reference 0.59 ± 0.06

## FUNDC1 10-25 (from UniProt Q8IVP5) pS13 peptide
[1]; reference: unphosphorylated peptide, sites S13
  KD: weaker; reference 1.78 ± 0.16
[2]
  KD: weaker; reference 11.44 ± 1.14; also recorded: weaker; reference 5.62 ± 0.25

## FUNDC1 10-25 (from UniProt Q8IVP5) LC3B K49E
[1]; [3]
  KD: weaker; reference 0.59 ± 0.06

## FUNDC1 10-25 (from UniProt Q8IVP5) LC3B K49R
[1]; [3]
  KD: stronger; reference 0.59 ± 0.06

## FUNDC1 10-25 (from UniProt Q8IVP5) pY18 peptide
[1]; reference: unphosphorylated peptide, sites Y18
  KD: weaker; reference 1.78 ± 0.16
